Substrate: Nc1nc(O)nc(O)n1
Experiment: purified protein
Conditions: 200 mM sodium phosphate pH 7.5, glycerol, 301 K, 28.0 °C

B1: AtzC (N-isopropylammelide isopropylaminohydrolase) (Pseudomonas sp. ADP) (protein)
chain: MSKDFDLIIRNAYLSEKDSVYDIGIVGDRIIKIEAKIEGTVKDEIDAKGNLVSPGFVDAHTHMDKSFTSTGERLPKFWSRPYTRDAAIEDGLKYYKNATHEEIKRHVIEHAHMQVLHGTLYTRTHVDVDSVAKTKAVEAVLEAKEELKDLIDIQVVAFAQSGFFVDLESESLIRKSLDMGCDLVGGVDPATRENNVEGSLDLCFKLAKEYDVDIDYHIHDIGTVGVYSINRLAQKTIENGYKGRVTTSHAWCFADAPSEWLDEAIPLYKDSGMKFVTCFSSTPPTMPVIKLLEAGINLGCASDNIRDFWVPFGNGDMVQGALIETQRLELKTNRDLGLIWKMITSEGARVLGIEKNYGIEVGKKADLVVLNSLSPQWAIIDQAKRLCVIKNGRIIVKDEVIVA
Km: 3.1 ± 0.2 mM | kcat: 26.2 ± 1.8 s⁻¹ | kcat/Km: 8500 M⁻¹ s⁻¹

From PMC4577212, “X-Ray Structure and Mutagenesis Studies of the N-Isopropylammelide Isopropylaminohydrolase, AtzC” (PLoS ONE, 2015)
